Assay [1] deals with T1, Human CD112R (PVRIG) (human, UniProt Q6DKI7 41-171, limits assumed).
T1 sequence (looked up): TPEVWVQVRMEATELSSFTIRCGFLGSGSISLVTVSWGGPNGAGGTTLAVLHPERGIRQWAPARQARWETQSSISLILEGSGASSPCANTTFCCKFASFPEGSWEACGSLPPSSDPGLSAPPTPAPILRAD
Description: affinity of glycosylation-motif variants (Table 2; method not named there).

The target in assay [2] is Cynomolgus monkey (Macaca fascicularis) CD112R expressed on cells (cynomolgus monkey (Macaca fascicularis)). The experiment in a line: flow cytometry on 293T cells expressing cynomolgus CD112R; 99-0.05 nM, three-fold dilutions.
Assay [3] deals with T2, Human CD112R expressed on cells (human, UniProt Q6DKI7 1-326).
T2 construct: whole, on cells; also called HuCD112R; hCD112R
T2 sequence (looked up): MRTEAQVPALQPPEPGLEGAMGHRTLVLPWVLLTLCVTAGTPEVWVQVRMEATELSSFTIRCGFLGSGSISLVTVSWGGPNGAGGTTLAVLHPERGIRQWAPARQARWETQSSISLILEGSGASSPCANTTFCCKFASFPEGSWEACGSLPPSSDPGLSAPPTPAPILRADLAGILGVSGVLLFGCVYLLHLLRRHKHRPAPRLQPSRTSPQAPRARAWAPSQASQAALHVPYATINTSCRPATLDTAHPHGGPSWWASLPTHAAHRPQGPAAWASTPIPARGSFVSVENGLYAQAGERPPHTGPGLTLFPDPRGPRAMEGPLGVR
Description: FACS, chimeric mAb 99-0.4 nM in three-fold dilutions on HEK 293T cells overexpressing CD112R, anti-human-APC 1:200. On the procedure: For detection, anti-human-APC antibody (Ab) was used at 1:200 dilution, and cell binding was analyzed by FACS. FIG. 3C—8866 cells ([…]) overexpressing human Nectin-2 were incubated with 10 μg/ml of CD112R-Fc in the presence of isotype control Ab, or with the indicated clones at 4 μg/ml. Bound CD112R-Fc was detected by anti-mouse-Dy-647 1:250 dilution and analyzed by FACS. The blocking of CD112R binding exceeded 95% by all the variants.
Binding was analyzed by FACS and used for calculation of EC-50 values. […] The N31S variant, engineered to remove an N-Linked glycosylation motif at the CDR1 of the heavy chain, had improved (sub-nM) binding to human CD112R in this cell-based assay.

For assay [4], the target named is T2, Human CD112R expressed on cells. Description: flow cytometry on 293T cells expressing human CD112R; 99-0.05 nM, three-fold dilutions. On the procedure:
(§1) The humanized mAbs were tested for binding of endogenous and overexpressed human and cynomolgus CD112R.

Assay [5] deals with T1, Human CD112R (PVRIG). Description: SPR (Biacore); human CD112R as ligand, antibody as analyte; * limit of Biacore instrument.
Assay [6] addresses T1, Human CD112R (PVRIG). The experiment in a line: SPR (Biacore); purified full antibody.
Assay [7] addresses T1, Human CD112R (PVRIG). The experiment in a line: SPR (Biacore); human CD112R as ligand, antibody as analyte.
Assay [8] concerns the target T1, Human CD112R (PVRIG). Description: SPR (Biacore), against the reference Ab.
Assay [9] addresses Cynomolgus monkey (Macaca fascicularis) CD112R expressed on cells (cynomolgus monkey (Macaca fascicularis)). The experiment in a line: flow cytometry on 293T cells; EC50 on cynomolgus CD112R against EC50 on human CD112R.
For assay [10], the target named is T2, Human CD112R expressed on cells. Description: flow cytometry on human NK cells (endogenous CD112R).
Assay [11] deals with Cynomolgus monkey (Macaca fascicularis) CD112R expressed on cells (cynomolgus monkey (Macaca fascicularis)). Description: flow cytometry on cynomolgus CD8 T cells (endogenous CD112R).
Assay [12] addresses T2, Human CD112R expressed on cells. Description: flow cytometry on human NK cells (endogenous CD112R). On the procedure:
as §1
(§2) Table 7 summarizes EC50 values calculated based on the binding curves of selected humanized mAbs to cynomolgus CD8 T cells and human NK cells, both cells expressing endogenous CD112R of the relevant species. Assay was performed as in Table 6. An anti-CD112R mAb disclosed in WO2016134333 was used for comparison. All the humanized variants have a complete cross-reactivity between the human and cynomolgus targets.
The source holds these as a separate data set.

Assay [13] shares this target. Description: flow cytometry; max binding on human NK cells against max binding on cynomolgus CD8 T cells. On the procedure:
as §1, §2

Assay [14] deals with Cynomolgus monkey (Macaca fascicularis) CD112R expressed on cells (cynomolgus monkey (Macaca fascicularis)). Description: flow cytometry; EC-50 on cynomolgus CD8 T cells against EC-50 on human NK cells.
Assay [15] addresses T2, Human CD112R expressed on cells. The experiment in a line: flow cytometry EC-50 on human NK cells, against the reference Ab (member assigned from Table 7).
Assay [16] addresses T1, Human CD112R (PVRIG). Description: SPR (Biacore); purified full antibody; * limit of the Biacore instrument sensitivity.
Assay [17] deals with T2, Human CD112R expressed on cells. The experiment in a line: flow cytometry competition on 293T cells overexpressing CD112R; antibody 40-0.018 nM; competitor hNectin-2-mIgG2a at 125 nM. On the procedure:
The humanized anti-CD112R antibodies are potent blockers of CD112R—Nectin-2 interactions. […] The antibodies were added in a range of concentrations of 40-0.018 nM in a series of three-fold dilutions. The amount of bound hNectin-2-mIgG2a was detected by anti-mouse antibodies fluorescently labeled with Dy-light 647 (115-606-071 Jackson immunoresearch) and analyzed by FACS.

B1: chimeric clone-13(N31S)-hIgG1 (VH0K0) (antibody, V domains shown)
VH: QVQLQQPGAELVKPGTSVKLSCKASGYNFTSYWINWVKLRPGQGLEWIGDIYPGSYIPNYNEKFKNKATLTVDTSSSTAYMQLTSLASEDSALYYCAGGYFDVWGAGTTVTVSS
VL: DIVMTQSPSSLSVSAGEKVTMSCKSSQSLLSSGNQKNYLAWYQQKPGQPPKLLIYGASTRESGVPDRFTGSGSGTDFTLTISSVQAEDLAVYYCQNDHSYPYTFGGGTKLEIK
notes: Chimeric, human IgG1; Light chain with N31S (deamidation removal), also denoted N27dS by Kabat numbering; also called clone N31S; VH0Vk0
Take B1: the Kd with Human CD112R (PVRIG) [1] is 0.167 nM; in the assay with Human CD112R (PVRIG) [5], 0.00096 nM; in the assay with Human CD112R (PVRIG) [6], 0.145 nM. The “Relative Kd (against VH0Vk0)” value with Human CD112R (PVRIG) [1] was 1. The EC50 was 0.97 nM in assay [2], 0.7 nM in assay [3] and 0.55 nM in assay [4]. Further, in the assay with Human CD112R (PVRIG) [6], the “Relative Kd (against VH0K0 N28T)” value is 1.16. The koff with Human CD112R (PVRIG) [6] was determined as 3.05e-05 s⁻¹; in the assay with Human CD112R (PVRIG) [7] it was 3.26e-07 s⁻¹. Further, the values for the on-rate constant (kon) in the assay with Human CD112R (PVRIG) [6] and with Human CD112R (PVRIG) [7] were 210000 M⁻¹ s⁻¹ and 340000 M⁻¹ s⁻¹, respectively. Further, the “fold more potent in binding CD112R than the reference Ab” value with Human CD112R (PVRIG) [8] lay in the range of 3 to 30 fold. Further, the Ratio Cyno/Hu (EC50) in assay [9] is 1.75.

B2: Clone-13-hIgG1 (antibody, V domains shown)
VH: QVQLQQPGAELVKPGTSVKLSCKASGYNFTSYWINWVKLRPGQGLEWIGDIYPGSYIPNYNEKFKNKATLTVDTSSSTAYMQLTSLASEDSALYYCAGGYFDVWGAGTTVTVSS
VL: DIVMTQSPSSLSVSAGEKVTMSCKSSQSLLNSGNQKNYLAWYQQKPGQPPKLLIYGASTRESGVPDRFTGSGSGTDFTLTISSVQAEDLAVYYCQNDHSYPYTFGGGTKLEIK
notes: Chimeric antibody with human IgG1 constant region; also called chimeric clone (clone 13)
In assay [3], B2 showed an EC50 of 1.24 nM. In addition, in the assay with Human CD112R (PVRIG) [5], the affinity, expressed as Kd, was 0.00871 nM. Further, in the assay with Human CD112R (PVRIG) [7], the koff was 2.96e-06 s⁻¹ and the kon came to 340000 M⁻¹ s⁻¹. Further, the “fold more potent in binding CD112R than the reference Ab” value with Human CD112R (PVRIG) [8] lay in the range of 3 to 30 fold.

B3: H11K1 (full humanized antibody) (antibody, V domains shown)
VH: QVQLVQSGAEVKKPGSSVKVSCKASGYTFTSYWINWVRQAPGQGLEWIGDIYPGSYIPNYNEKFKNRATLTVDTSASTAYMELSSLRSEDTAVYYCAGGYFDVWGQGTTVTVSS
VL: DIVMTQSPDSLSVSLGERATINCKSSQSLLSSGNQKNYLAWYQQKPGQPPKLLIYGASTRESGVPDRFTGSGSGTDFTLTISSLQAEDVAVYYCQNDHSYPYTFGQGTKLEIK
notes: Humanized full antibody, human IgG1; also called VH11K1
For the molecule B3, in [2], the concentration for a half-maximal effect (EC50) amounted to 0.72 nM. Moreover, in assay [4], the EC50 came to 0.3 nM. Also, the “Max binding Hu (MFI a.u - background)” value in [10] came out at 982 MFI a.u. In assay [11], the EC50 was found to be 1.46 nM and the Max binding Cyno (MFI a.u - background) is 820 MFI a.u. The same molecule returned an EC50 in assay [12] of 0.91 nM. Besides, the Ratio Cyno/Hu (EC50) in assay [9] turned out to be 2.43. Moreover, in assay [13], the “Ratio Hu/Cyno (max binding)” value was 1.2. Moreover, the Ratio Cyno/Hu (EC-50) in assay [14] amounted to 1.61. Also, the “fold improved binding compared to the reference Ab” value in [15] was above 2 fold. Further, in the assay with Human CD112R (PVRIG) [16], the Kd turned out to be 0.0167 nM, the “Relative Kd (against VH0K0 N28T)” value was 0.13, the koff amounted to 4.79e-06 s⁻¹ and the kon was 287000 M⁻¹ s⁻¹. Also, in assay [17], a half-maximal effect (EC50) was put at 0.29 nM and the EC-90 was 10.7 nM.

(Values after US20240270840A1 (NECTIN THERAPEUTICS, published 2024).)
